In patent publication US5847077, “Fungal multisubunit protein complex critical for expression of fungal proteins” (University of Massachusetts Medical Center, dated 1998):

T1: S. cerevisiae TATA-box Binding Protein (yTBP) (S. cerevisiae, UniProt P13393)
T1 sequence: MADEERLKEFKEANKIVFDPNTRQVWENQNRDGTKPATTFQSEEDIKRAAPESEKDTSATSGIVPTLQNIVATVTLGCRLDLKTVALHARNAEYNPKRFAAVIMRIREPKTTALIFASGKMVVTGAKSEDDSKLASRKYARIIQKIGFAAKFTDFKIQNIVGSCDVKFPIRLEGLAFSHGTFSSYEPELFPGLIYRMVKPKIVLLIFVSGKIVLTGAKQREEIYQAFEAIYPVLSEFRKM


Legend:
[1] = biological target: T1, S. cerevisiae TATA-box Binding Protein …; assay: Far Western blot of the hydroxylapatite fraction probed with 35S-labelled yTBP
Protocol: (§1) The hydroxylapatite fraction was separated by SDS-PAGE and transferred to Immobilon-P membranes, and blocked in buffer T (0.2M KOAc) containing 0.01% (v/v) NP-40 and 4% BSA for 3 hr at room temperature followed by 2 hr at […]. ^35S-labeled yTBP and hTBP and its mutant derivatives (Ha, I. et al. Genes & Dev. 7, 1021–1032 (1993)) were synthesized in rabbit reticulocyte lysate and wheat germ extract, respectively, and were diluted in incubation buffer (buffer T (0.2) plus 0.01% (v/v) NP-40 and 0.5% BSA). […] The membrane was incubated with probe at […] for 14–18 min, twice in incubation buffer without BSA for 15 min, and rinsed in buffer T (0.2) lacking glycerol for 20 sec. The membrane was air dried, and exposed directly to film for 8–24 hr.
(§2) To identify this subunit, the yTAF complex was examined for TBP binding using an immobilized protein blotting ("Far Western") assay. The hydroxylapatite fraction was fractionated by SDS-PAGE, the polypeptides transferred to nitrocellulose, and the membrane probed with ^35S-labeled yTBP.

[2] = biological target: human TATA-box Binding Protein (hTBP) (human, UniProt P20226); assay: Far Western blot of the hydroxylapatite fraction probed with 35S-labelled human TBP
Protocol: as §1, §2

| binding result [1] | binding result [2] | Binder |
| --- | --- | --- |
| no binding | – | yeast TAF-90 (yTAF90), the 90 kD polypeptide of the yTAF complex (other) MSQKQSTNQNQNGTHQPQPVKNQRTNNAAGANSGQQPQQQSQGQSQQQGRSNGPFSASDLNRIVLEYLNKKGYHRTEAMLRAESGRTLTPQNKQSPANTKTGKFPEQSSIPPNPGKTAKPISNPTNLSSKRDAEGGIVSSGRLEGLNAPENYIRAYSMLKNWVDSSLEIYKPELSYIMYPIFIYLFLNLVAKNPVYARRFFDRFSPDFKDFHGSEINRLFSVNSIDHIKENEVASAFQSHKYRITMSKTTLNLLLYFLNENESIGGSLIISVINQHLDPNIVESVTAREKLADGIKVLSDSENGNGKQNLEMNSVPVKLGPFPKDEEFVKEIETELKIKDDQEKQLNQQTAGDNYSGANNRTLLQEYKAMNNEKFKDNTGDDDKDKIKDKIAKDEEKKESELKVDGEKKDSNLSSPARDILPLPPKTALDLKLEIQKVKESRDAIKLDNLQLALPSVCMYTFQNTNKDMSCLDFSDDCRIAAAGFQDSYIKIWSLDGSSLNNPNIALNNNDKDEDPTCKTLVGHSGTVYSTSFSPDNKYLLSGSEDKTVRLWSMDTHTALVSYKGHNHPVWDVSFSPLGHYFATASHDQTARLWSCDHIYPLRIFAGHLNDVDCVSFHPNGCYVFTGSSDKTCRMWDVSTGDSVRLFLGHTAPVISIAVCPDGRWLSTGSEDGIINVWDIGTGKRLKQMRGHGKNAIYSLSYSKEGNVLISGGADHTVRVWDLKKATTEPSAEPDEPFIGYLGDVTASINQDIKEYGRRRTVIPTSDLVASFYTKKTPVFKVKFSRSNLALAGGAFRP |
| binds | binds | yeast TAF-145 (yTAF145), the 145 kD polypeptide of the yTAF complex (other) MVKQQGSGKTNLANEDEAYEAIFGGEFGSLEIGSYIGGDEGANSKDYTEHLPDAVDFEDEDELADDDDDLPEESDANLHPAMMTMGAYDDVNENGAVLGIDSNSLNMQLPEINGDLSQQFILEDDGGTPATSNALFMGMDANEIHLATETGVLDGSGANEIGHSQLSIGGVNGNDMSINGGFIMEPDMSDGKHKKATKLDLINHEKYLLKKYFPDFEKGKILKWNKLIYRRSVPYHWHSEISRVKKPFMPLNLKFKVQQDDKRLFNSRTISYVAPIYQGKNNLLQSNSSASRRGLIHVSIDELFPIKEQQKKRKIIHDEKTISEDLLIATDDWDQEKIINQGTSSTATLADSSMTPNLKFSGGYKLKSLIEDVAEDWQWDEDMIIDAKLKESKHAELNMNDEKLLLMIEKTNNLAQQKQQLDSSNLILPLNETILQQKFNLSNDDKYQILKKTHQTKVRSTISNLNIQHSQPAINLQSPFYKVAVPRYQLRHFHRENFGSHIRPGTKIVFSKLKARKRKRDKGKDVKESFSTSQDLTIGDTAPVYLMEYSEQTPVALSKRGMANKLINYYRKANEQDTLRPKLPVGETHVLGVQDKSPFWNFGFVEPGHIVPTLYNNMIRAPVFKHDISGTDFLLTKSSGFGISNRFYLRNINHLFTVGQTFPVEEIPGPNSRKVTSMKATRLKMIIYRILNHNHSKAISIDPIAKHFPDQDYGQNRQKVKEFMKYQRDGPEKGLWRLKDDEKLLDNEAVKSLITPEQISQVESMSQGLQFQEDNEAYNFDSKLKSLEENLLPWNITKNFINSTQMRAMIQIHGVGDPTGCGEGFSFLKTSMKGGFVKSGSPSSNNNSSNKKGTNTHSYNVAQQQKAYDEEIAKTWYTHTKSLSISNPFEEMTNPDEINQTNKHVKTDRDDKKILKIVRKKRDENGIIQRQTIFIRDPRVIQGYIKIKEQDKEDVNKLLEEDTSKINNLEELEKQKKLLQLELANLEKSQQRRAARQNSKRNGGATRTENSVDNGSDLAGVTDGKAARNKGKNTTRRCATCGQIGHIRTNKSCPMYSSKDNPASPK |
